Source: US20150065420A1 (EXTEND BIOSCIENCES, published 2015)

Molecular target: GHS-R (ghrelin receptor) expressed on CHO-K1 cells
Experiment: cell-based or functional assay

Sequence of GHS-R (ghrelin receptor) expressed on CHO-K1 cells (Q92847 whole entry): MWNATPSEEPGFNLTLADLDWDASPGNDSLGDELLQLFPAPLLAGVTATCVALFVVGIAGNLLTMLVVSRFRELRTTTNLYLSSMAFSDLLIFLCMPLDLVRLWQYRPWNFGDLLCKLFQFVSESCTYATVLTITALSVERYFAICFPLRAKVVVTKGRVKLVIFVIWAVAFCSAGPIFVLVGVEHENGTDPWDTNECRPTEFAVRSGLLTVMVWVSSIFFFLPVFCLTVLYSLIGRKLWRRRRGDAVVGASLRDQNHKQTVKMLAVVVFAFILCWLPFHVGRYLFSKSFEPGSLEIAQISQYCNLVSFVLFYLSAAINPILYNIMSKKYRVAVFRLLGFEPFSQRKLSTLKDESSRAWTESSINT

B1: Vitamin D3-PEG-maleimide carrier-conjugated ghrelin from Example 3 (peptide)
peptide: GSSFLSPEHQKAQQRKESKKPPAKLQPRC
modifications: n-octanoyl on Ser 3; added C-terminal Cys conjugated through its thiol to the Vitamin D3-PEG(2 kDa)-maleimide carrier of Example 1
EC50 of intracellular calcium flux (FLIPR, % activation) in GHS-R-expressing CHO-K1 cells: 0.085 µM
